Reference: the supplement of paper PMC10126150
± gives the standard deviation of the averaged measurements.

Tested on: ATP
Assay: switch fluorescence ratio, 500 uM ATP over buffer (Cy3 cluster intensity, sum of 5 cycles each) (fold (ratio)); higher = stronger signal-on switching upon ATP binding; sequences stand for … in TCGTCGGCAGCGTCAGATGTGTATAAGAGACAGTTTTTTTTTTTTTTTTTTTTTTTTT…TC
Settings: aptamer strand: ATP DNA aptamer (quencher-CACCTGGGGGAGTATTGCGGAGGAAGG + anchor), 100 nM annealed; ATP concentration: 500 uM
Method in brief: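 Values give the fluorescence ratio for each switch-domain sequence, averaged from per-cluster ratios of summed target-cycle to summed buffer-cycle Cy3 intensity. The Cy3-labelled switching-strand clusters sat on a modified Illumina MiSeq flow-cell, were annealed to 100 nM quencher-labelled ATP aptamer, and were imaged in selection buffer, then after 15 min with 500 uM ATP at 22 °C. Five cycles ran with NaOH stripping and re-annealing between them, and clusters outside 100-1000 RFU were excluded.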
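Also: ATP exposure 15 min at 22 °C before imaging.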

| Sequence | switch fluorescence ratio |
| --- | --- |
| GGTAGCAGTT | 1 ± 0.026 |
| GGTAGCCGGT | 1.01 ± 0.041 |
| GGTAGCGTCT | 1.06 ± 0.09 |
| GGTAGGACTC | 1 ± 0.026 |
| GGTAGGATAG | 0.9728 ± 0.0016 |
| GGTAGGGAAC | 0.975 ± 0.029 |
| GGTAGGGAAT | 0.974 ± 0.029 |
| GGTAGGGCGG | 1.01 ± 0.068 |
| GGTAGGGGGA | 1.02 ± 0.046 |
| GGTATAAATG | 1 ± 0.019 |
| GGTATAAGGT | 1.006 ± 0.01 |
| GGTATACGCA | 1.14 ± 0.028 |
| GGTATAGAGC | 1.02 ± 0.05 |
| GGTATAGCAC | 1.07 ± 0.016 |
| GGTATAGCGC | 1.01 ± 0.051 |
| GGTATAGGAT | 0.991 ± 0.025 |
| GGTATAGTAG | 0.99304 ± 0.00031 |
| GGTATAGTTA | 1.02 ± 0.037 |
| GGTATATAGG | 1.01 ± 0.027 |
| GGTATCCGGC | 1.03 ± 0.088 |
| GGTATCGGAA | 0.984 ± 0.055 |
| GGTATCTAGT | 1.02 ± 0.032 |
| GGTATCTGTT | 0.986 ± 0.016 |
| GGTATGAGTG | 0.9737 ± 0.006 |
| GGTATGTGTG | 1.03 ± 0.024 |

| Sequence | switch fluorescence ratio |
| --- | --- |
| GGTATTAGCT | 1.01 ± 0.013 |
| GGTATTAGGT | 1.01 ± 0.011 |
| GGTATTCGGT | 0.971 ± 0.04 |
| GGTATTGAAG | 0.999 ± 0.024 |
| GGTATTGTTT | 0.9881 ± 0.0066 |
| GGTATTTAGG | 1.02 ± 0.029 |
| GGTCAAATAA | 0.99 ± 0.042 |
| GGTCACTGCG | 0.9955 ± 0.0064 |
| GGTCAGCCGG | 1.02 ± 0.012 |
| GGTCAGTGGT | 1 ± 0.022 |
| GGTCAGTTAT | 0.99 ± 0.047 |
| GGTCATAGGT | 0.994 ± 0.022 |
| GGTCATATAG | 1.032 ± 0.0012 |
| GGTCATGGTG | 1.08 ± 0.024 |
| GGTCATTGGA | 1.09 ± 0.064 |
| GGTCCATTTT | 0.969 ± 0.017 |
| GGTCCCGGTG | 1.1 ± 0.013 |
| GGTCCGGCGG | 0.984 ± 0.057 |
| GGTCCGGGCG | 0.997 ± 0.024 |
| GGTCCGGGTT | 1.006 ± 0.01 |
| GGTCCGGTTC | 1.01 ± 0.025 |
| GGTCCGTAGT | 1.04 ± 0.017 |
| GGTCCTGGGA | 1.02 ± 0.059 |
| GGTCCTGTCG | 1.03 ± 0.042 |
| GGTCGAAATT | 1.15 ± 0.31 |

| Sequence | switch fluorescence ratio |
| --- | --- |
| GGTCGAAGGG | 0.985 ± 0.051 |
| GGTCGAGAGG | 0.971 ± 0.03 |
| GGTCGCACGG | 1.02 ± 0.026 |
| GGTCGGCTAG | 0.9954 ± 0.0083 |
| GGTCGGGGAA | 1.01 ± 0.042 |
| GGTCGTGGCA | 0.969 ± 0.028 |
| GGTCGTTCGC | 1.01 ± 0.038 |
| GGTCGTTTTT | 1.044 ± 0.0029 |
| GGTCTAATCT | 1.04 ± 0.015 |
| GGTCTACTTT | 0.998 ± 0.021 |
| GGTCTAGCCT | 0.9858 ± 0.0066 |
| GGTCTAGGTG | 1.2586 ± 0.00091 |
| GGTCTCCGGC | 1.01 ± 0.065 |
| GGTCTCTTTG | 0.9663 ± 0.0084 |
| GGTCTGATTG | 1.01 ± 0.065 |
| GGTCTGCTTA | 0.9828 ± 0.0065 |
| GGTCTGTTTT | 0.992 ± 0.022 |
| GGTCTTAGTG | 0.982 ± 0.017 |
| GGTGAACGTG | 0.97 ± 0.041 |
| GGTGACAGCT | 0.979 ± 0.023 |
| GGTGACTATT | 0.979 ± 0.037 |
| GGTGAGGGGT | 0.997 ± 0.035 |
| GGTGATAGCT | 0.987 ± 0.076 |
| GGTGATAGGG | 0.98 ± 0.036 |
| GGTGATGAGA | 0.991 ± 0.06 |

| Sequence | switch fluorescence ratio |
| --- | --- |
| GGTGATTCTG | 0.965 ± 0.038 |
| GGTGATTGCT | 0.967 ± 0.036 |
| GGTGCAGCGG | 0.982 ± 0.018 |
| GGTGCCAAGG | 0.959 ± 0.02 |
| GGTGCGACTC | 1.04 ± 0.05 |
| GGTGCGGGAT | 0.992 ± 0.043 |
| GGTGCGGTTG | 0.9975 ± 0.00035 |
| GGTGGACGGG | 0.974 ± 0.015 |
| GGTGGAGAGG | 0.929 ± 0.018 |
| GGTGGAGTTT | 0.987 ± 0.015 |
| GGTGGATCTT | 1.03 ± 0.015 |
| GGTGGATGGG | 0.987 ± 0.014 |
| GGTGGCATTT | 1.08 ± 0.011 |
| GGTGGCGTAC | 1.018 ± 0.01 |
| GGTGGGAAGT | 0.987 ± 0.021 |
| GGTGGGAGTT | 1.04 ± 0.032 |
| GGTGGGATTA | 1.014 ± 0.009 |
| GGTGGGGCGT | 1 ± 0.017 |
| GGTGGGGGAG | 1.01 ± 0.043 |
| GGTGGGGGCA | 0.979 ± 0.029 |
| GGTGGGGGCC | 1.03 ± 0.011 |
| GGTGGGGTGA | 0.9856 ± 0.0078 |
| GGTGGGTCGG | 0.98 ± 0.036 |
| GGTGGGTGCT | 0.995 ± 0.052 |
| GGTGGGTTGC | 0.9858 ± 0.0086 |
